Test results: patent US20260193324A1

Target: human GLP-1 receptor (GLP-1R) (human) (UniProt P43220)
UniProt P43220, sequence (P43220 24-463): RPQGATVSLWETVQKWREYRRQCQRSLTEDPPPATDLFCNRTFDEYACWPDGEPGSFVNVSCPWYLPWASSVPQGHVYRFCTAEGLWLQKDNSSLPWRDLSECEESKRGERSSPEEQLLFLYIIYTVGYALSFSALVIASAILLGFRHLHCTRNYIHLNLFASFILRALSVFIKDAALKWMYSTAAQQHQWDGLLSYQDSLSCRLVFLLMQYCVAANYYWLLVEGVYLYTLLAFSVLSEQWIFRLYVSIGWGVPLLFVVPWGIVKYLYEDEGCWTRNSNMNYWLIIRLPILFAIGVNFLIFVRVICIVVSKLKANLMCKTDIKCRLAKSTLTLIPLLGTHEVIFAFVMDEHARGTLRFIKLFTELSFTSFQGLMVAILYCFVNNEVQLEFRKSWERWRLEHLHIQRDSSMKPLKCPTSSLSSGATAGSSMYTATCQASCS

- EC50 (read off the curve), 4 hr stimulation: 1 nM
Substance: GLP-1(7-37) peptide (from UniProt P01275 21-180)
